In patent US20160200789A1, “IL4 CONJUGATED TO ANTIBODIES AGAINST EXTRACELLULAR MATRIX COMPONENTS” (PHILOGEN S.P.A., priority 2013, published 2016):

Tests used:
[1] = system: imiquimod (IMQ)-induced ear inflammation in C57BL/6 mice; test: IMQ-induced inflammation model of psoriasis; format: in vivo, mouse
Method: C57BL/6 mice (Charles River, Germany) were treated on each side of each ear with 5 mg Aldara cream (containing 0.25 mg Imiquimod). The treatment schedule is illustrated in FIG. 11A. The Aldara cream was applied every day for 5 days (on day 1, 2, 3, 4 5 and […]: each application is illustrated by an asterisk in FIG. 11A). Ear thickness was measured with a caliper before the application of the cream. […] Treatment was repeated on day 9 and 11 (each treatment event is illustrated by an arrow in FIG. 11A).

[2] = system: experimental autoimmune encephalomyelitis (EAE) in C57/BL6 mice; test: Experimental autoimmune encephalomyelitis (EAE) model of multiple sclerosis; format: in vivo, mouse
Text: 36 C57/BL6 mice were immunized with MOG35-55/CFA and pertussis toxin by injection as reported in McCarthy et al. (2012) to induce experimental autoimmune encephalomyelitis (EAE), a model for multiple sclerosis (MS). Mice were scored daily and using a grading system from 0 to 5 reflecting progressive paralysis (McCarthy et al., 2012). Any mouse with newly developed clinical signs of EAE was assigned to one of three groups in a balanced manner. Treatment started on the day of assignment to a group (first day after EAE onset). Mice in the F8-murine IL4 treatment group (SEQ ID NO: 21) (indicated by circles in FIG. 18) received a total of three i.v. injection of 200 μg each (200 μl of a 1 mg/ml solution), every third day (see black arrows in FIG. 18). Mice in the Fingolimod (FTY720) treatment group (indicated by squares in FIG. 18) received daily oral gavage at a dose of 1 mg/kg (see open arrows in FIG. 18).

F9 teratocarcinoma = test: Therapy studies in F9 teratocarcinoma-bearing mice; format: in vivo, mouse
Method: In a dose finding study, F9 tumour-bearing mice were randomly grouped (n=5) and injected intravenously (i.v.) into the lateral tail vein when tumours were clearly palpable. […] The therapeutic antibodies were all dissolved in phosphate buffered saline (PBS) and this buffer was also used in the negative control treatment groups. The mice were monitored daily and tumour volume was measured with a calliper (volume=length×width^2×0.5).

[3] = system: CHS-induced ear inflammation in K14-VEGF-A mice; test: Contact hypersensitivity-induced ear inflammation in K14-VEGF-A mice; format: in vivo, mouse
Text: A delayed-type hypersensitivity reaction was induced in the ear skin of female FVB mice that overexpress VEGF-A in the epidermis under control of the human keratin 14 promoter as previously described (Detmar et al., 1998; Kunstfeld et al., 2004; Xia et al., 2003). Heterozygous VEGF-A transgenic mice with no pre-existing inflammatory lesions were sensitized by topical application of a 2% oxazolone (4-ethoxymethylene-2-phenyl-2-oxazoline-5-one; Sigma) solution in acetone/olive oil (4:1 vol/vol) to the shaved abdomen (50 μl) and each paw (5 μl). Five days after sensitization, the ears were challenged by topical application of 20 μl of a 1% oxazolone solution. Therapy was started on day 7 and repeated at day 9, 11 and 13. […] Ear thickness was measured every other day and at day 15, mice were sacrificed and ear draining lymph nodes were weighted. The timeline for this experiment is illustrated in FIG. 13A. Each treatment event is indicated by an arrow.

CTLL2 cells = test: CTLL2 cell proliferation bioactivity assay; format: cell-based; settings: 24 h
Method: The biological activity of murine IL4 was determined by its ability to stimulate the proliferation of CTLL2 cells. […] After incubation at 37° C. for 24 h, cell proliferation was determined with Cell Titer Aqueous One Solution (Promega).

B1: F8-IL4: antibody F8 (anti-EDA of fibronectin) in diabody format fused at the C-terminus to murine interleukin 4 via 15 amino acid linker (protein)
chain: EVQLLESGGGLVQPGGSLRLSCAASGFTFSLFTMSWVRQAPGKGLEWVSAISGSGGSTYYADSVKGRFTISRDNSKNTLYLQMNSLRAEDTAVYYCAKSTHLYLFDYWGQGTLVTVSSGGSGGEIVLTQSPGTLSLSPGERATLSCRASQSVSMPFLAWYQQKPGQAPRLLIYGASSRATGIPDRFSGSGSGTDFTLTISRLEPEDFAVYYCQQMRGRPPTFGQGTKVEIKSSSSGSSSSGSSSSGHIHGCDKNHLREIIGILNEVTGEGTPCTEMDVPNVLTATKNTTESELVCRASKVLRIFYLKHGKTPCLKKNSSVLMELQRLFRAFRCLDSSISCTMNESKSTSLKDFLESLKSIMQMDYS
modifications: Synthetic sequence Amino acid sequence of F8 -(murine) IL4 of PCT/EP2014/053998
notes: antibody F8 (anti-EDA of fibronectin) in diabody format fused at the C-terminus to murine interleukin 4 via 15 amino acid linker
For B1, the ear thickness ([1]; 100 μg i.v. days 7, 9, 11, day 13, vs PBS or KSF-IL4) was “significantly reduced ear thickness”, the “ear draining lymph nodes (weight)” value ([1]; day 13) was “smaller” and the “decrease in ear thickness from treatment initiation (day 7)” value ([1]; mouse, in vivo) was “significantly more than in mice receiving either PBS, F8-SIP or KSF-IL4 treatment”. The “EAE severity compared with fingolimod” value ([2]; fingolimod 1 mg/kg daily oral gavage) was “not significantly different”, the “EAE severity compared with PBS” value ([2]; three i.v. injections of 200 μg, every third day) was “significantly reduced EAE severity” and the “tumour retardation in dose finding study” value (F9 teratocarcinoma; 90 μg compared with 45 μg, i.v. every second day) was “best tumour retardation results”. The “therapeutic effect compared with KSF-IL4” value (F9 teratocarcinoma; 90 μg i.v. every second day) was “substantially more potent”, the “cure of F9 tumours by treatment alone” value (F9 teratocarcinoma; monotherapy) was “not cured” and the single-agent therapeutic activity (F9 teratocarcinoma; mouse, in vivo) was “potent single-agent therapeutic activity”. For the same molecule, the ear thickness ([3]; 100 μg i.v. days 7, 9, 11, 13, vs PBS or KSF-IL4) was “significantly reduced ear thickness”, the “ear draining lymph nodes (weight)” value ([3]; day 15) was “smaller” and the “decrease in ear thickness from treatment initiation (day 7)” value ([3]; mouse, in vivo) was “significantly more than treatment with either FSF-IL4, F8-SIP or PBS”. For the same molecule, the EC50 (CTLL2 cells; CTLL2 cells, 20000 cells/well) was 23 pM and the biological cytokine activity (CTLL2 cells; CTLL2 proliferation) was “comparable to that of recombinant murine IL4”.
